Measured values: paper PMC11624268, “Leishmania protein KMP-11 modulates cholesterol transport and membrane fluidity to facilitate host cell invasion” (EMBO Reports, 2024)

B1: purified recombinant KMP-11 (kinetoplastid membrane protein-11), wild type (natural protein)
chain: MATTYEEFSAKLDRLDQEFNRKMQEQNAKFFADKPDESTLSPEMREHYEKFERMIKEHTEKFNKKMHEHSEHFKQKFAELLEQQKAAQYPSK
notes: amino-terminal stretch (1-19) of kinetoplastid membrane protein-11 (KMP-11), Leishmania donovani (so in the source); rest of kinetoplastid membrane protein-11 (KMP-11), Leishmania donovani, after the printed stretch 1-19; Purification by the procedure of Sharma et al, 2013; also called r-KMP-11; WT KMP-11; source: pET28a, bacterial culture, purified (Ni-NTA, endotoxin removal column, gel …)

Legend:
[1] = target: the molecule itself; assay: negative stain TEM; purified KMP-11 (0.1 mg/ml) in the presence of DPPC ERG (30%) SUVs; 50 mM tris pH 8.0, 150 mM NaCl; 1% uranyl acetate
[2] = target: the molecule itself; assay: single molecule photobleaching step analysis (TIRF microscopy); 50 nM Alexa-488 maleimide labeled KMP-11 (S38C) on PEG cushioned supported bilayer of DPPC-ERG (30%); 30 min incubation; manual step counts from 235 spots
[3] = target: B1; assay: fluorescence correlation spectroscopy (FCS); 50 nM Alexa488Maleimide labeled r-KMP-11 in the presence of unlabeled r-KMP-11 at different total concentrations; diffusion time read out; in the absence and presence of different salt concentrations (salt facilitates self-association); settings: both partners purified

## B1
[1]
  stoichiometry N: 4

B2: Alexa488-maleimide labeled r-KMP-11 S38C (kinetoplastid membrane protein-11, single cysteine mutant) (natural protein)
chain: MATTYEEFSAKLDRLDQEFNRKMQEQNAKFFADKPDECTLSPEMREHYEKFERMIKEHTEKFNKKMHEHSEHFKQKFAELLEQQKAAQYPSK
modifications: Alexa-488 maleimide on the single cysteine (S38C); labeling percentage 86%
notes: amino-terminal stretch (1-19) of kinetoplastid membrane protein-11 (KMP-11), Leishmania donovani (so in the source); rest of kinetoplastid membrane protein-11 (KMP-11), Leishmania donovani, after the printed stretch 1-19; The labeled protein was passed through Ni NTA after labeling, so the tag was probably still there; Purification by the procedure of Sharma et al, 2013; also called …
[2]
  stoichiometry N: 4
[3]
  binding result: binds
